In article PMC3229523, “Identification of Lactoferricin B Intracellular Targets Using an Escherichia coli Proteome Chip” (PLoS ONE, 2011):
Ends that are not written are not given here. * marks the point of attachment. Biotin = O=C1N[C@H]2[C@H](CS[C@H]2CCCCC(=O)*)N1

Assays:
Assay in all cases: peptide or protein array; E. coli proteome chip: purified His-tagged proteins printed in duplicate on Fullmoon slides, blocked with 1% BSA; 10 nM N-terminal biotinylated LfcinB with 1% BSA, room temperature, 1 h; detected with DyLight 649-labeled streptavidin, ratio to DyLight 549-labeled anti-His antibody; ProCAT normalisation, local cut-off; triplicate chips
Conditions in all cases: both partners purified
[1] = target: T1, YqcA (E. coli K-12, UniProt P65367 1-149)
T1 construct: YqcA, E. coli K-12
T1 sequence (looked up): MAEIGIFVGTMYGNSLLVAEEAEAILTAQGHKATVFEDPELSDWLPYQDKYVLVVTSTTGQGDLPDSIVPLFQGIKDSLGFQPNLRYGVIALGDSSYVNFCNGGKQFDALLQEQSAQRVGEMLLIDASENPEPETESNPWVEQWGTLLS

[2] = target: T2, AtpH (E. coli K-12, UniProt P0ABA4 1-177)
T2 construct: AtpH, E. coli K-12
T2 sequence (P0ABA4 whole entry): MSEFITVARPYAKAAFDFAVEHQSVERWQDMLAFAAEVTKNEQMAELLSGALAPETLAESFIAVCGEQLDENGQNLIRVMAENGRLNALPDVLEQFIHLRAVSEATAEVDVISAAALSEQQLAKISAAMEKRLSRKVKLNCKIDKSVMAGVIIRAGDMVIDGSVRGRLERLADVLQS

[3] = target: MalP (E. coli K-12, UniProt P00490 1-797)
[4] = target: T3, DnaT (E. coli K-12, UniProt P0A8J2 1-179)
T3 construct: DnaT, E. coli K-12
T3 sequence (looked up): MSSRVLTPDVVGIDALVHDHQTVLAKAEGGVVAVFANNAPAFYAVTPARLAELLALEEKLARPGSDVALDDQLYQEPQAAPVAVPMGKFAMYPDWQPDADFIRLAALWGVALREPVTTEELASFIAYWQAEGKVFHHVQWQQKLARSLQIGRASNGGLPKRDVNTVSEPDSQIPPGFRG

[5] = target: T4, YdcC (E. coli K-12, UniProt P28917 1-378)
T4 construct: YdcC, E. coli K-12
T4 sequence (looked up): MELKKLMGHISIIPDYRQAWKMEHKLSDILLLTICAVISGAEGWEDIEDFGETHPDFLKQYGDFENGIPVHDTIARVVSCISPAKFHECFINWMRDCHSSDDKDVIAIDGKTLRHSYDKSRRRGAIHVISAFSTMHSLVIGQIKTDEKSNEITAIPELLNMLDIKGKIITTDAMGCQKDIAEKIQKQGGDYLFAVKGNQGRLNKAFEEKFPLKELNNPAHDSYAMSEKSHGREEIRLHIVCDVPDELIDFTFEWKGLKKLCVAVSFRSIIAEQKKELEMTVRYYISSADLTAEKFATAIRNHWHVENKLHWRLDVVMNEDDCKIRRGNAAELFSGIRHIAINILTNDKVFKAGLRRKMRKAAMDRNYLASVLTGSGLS

[6] = target: T5, YchA (E. coli K-12, UniProt P0AGM5 1-269)
T5 construct: YchA, E. coli K-12
T5 sequence (looked up): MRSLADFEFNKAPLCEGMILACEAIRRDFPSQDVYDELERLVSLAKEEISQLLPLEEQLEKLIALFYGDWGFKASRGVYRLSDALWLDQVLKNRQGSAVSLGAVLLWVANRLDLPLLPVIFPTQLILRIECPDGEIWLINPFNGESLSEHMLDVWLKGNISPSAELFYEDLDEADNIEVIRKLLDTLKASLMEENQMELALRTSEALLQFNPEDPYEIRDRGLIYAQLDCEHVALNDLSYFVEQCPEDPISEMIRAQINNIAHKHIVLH

[7] = target: T6, YjhI (E. coli K-12, UniProt P39360 1-262)
T6 construct: YjhI, E. coli K-12
T6 sequence (looked up): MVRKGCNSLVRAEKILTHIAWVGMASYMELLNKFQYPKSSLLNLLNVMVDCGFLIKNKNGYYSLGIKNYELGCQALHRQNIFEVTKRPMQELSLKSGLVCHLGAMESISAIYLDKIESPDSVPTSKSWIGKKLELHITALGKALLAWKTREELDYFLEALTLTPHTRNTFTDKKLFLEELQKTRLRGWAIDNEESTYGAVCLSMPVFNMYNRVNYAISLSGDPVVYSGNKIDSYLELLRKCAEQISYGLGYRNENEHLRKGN

Measured: binding result

B1: N-terminal biotinylated Lactoferricin B (peptide, UniProt P24627 36-60, looked up)
peptide: Biotin-FKCRRWQWRMKKLGAPSITCVRRAF
modifications: ends and bridges not checked
notes: lactoferricin B (LfcinB), cationic antimicrobial peptide of 25 amino acids; also called biotinylated LfcinB; biotin-labeled LfcinB; source: bought: Kelowna Inc
binds: all assays above
